This is an account of results in patent US20220041723A1 (published 2022).

For orientation: EC50 means the concentration at which the effect is half-maximal. The low end stands for a more potent agent, the high end for a less potent agent.

For assay [1], the target named is T1, human CTLA-4 expressed on cells (293T cells stably transfected with human CTLA-4); in vitro-activated human … (human, UniProt P16410 36-223). The experiment in a line: FACS. A general note: In flow cytometry, cells or beads pass a laser one at a time.
For assay [2], the target named is T1, human CTLA-4 expressed on cells (293T …). The experiment in a line: FACS. This is another data set of the same source.

Substitutions are numbered along the chain they refer to. Read-outs that look alike come from different tables or passages of the source.

B1: 2-F09 (antibody, V domains shown)
VH: EVQLLESGGGLVQPGGSLRLSCAASGFTFKAYSMSWIRQAPGKGLEWVSGISNTGGSTDFADSVKGRFTISRDNSKNTLYLQMNSLRAEDTAMYYCARLGYSGYDDRGMDVWGQGTLVTVSS
VL: QSVLTQPPSASGTPGQRVTISCSGSSSNIGSNYVYWYQQLPGTAPKLLIYGNSNRPSGVPDRFSGSKSGTSASLAISGLRSEDEADYYCQSYDSSLSGPVVFGGGTKLTVLG
In the case of B1, in assay [1], a half-maximal response (EC50) required 0.19 nM.

B2: 4-E03 (antibody, V domains shown)
VH: EVQLLESGGGLVQPGGSLRLSCAASGFTFSDYYMSWVRQAPGKGLEWVSGISWSSRDKGYADSVKGRFTISRDNSKNTLYLQMNSLRAEDTAVYYCTTDLARYWGQGTLVTVSS
VL: QSVLTQPPSASGTPGQRVTISCTGSSSNIGAGYDVHWYQQLPGTAPKLLIYGNDNRPSGVPDRFSGSKSGTSASLAISGLRSEDEADYYCAVWDDSLNGVVFGGGTKLTVLG
Regarding B2, in assay [2], a half-maximal effect (EC50) was put at 0.13 nM.

B3: 2-C06 (antibody, V domains shown)
VH: EVQLLESGGGLVQPGGSLRLSCAASGFTFSSYAMSWVRQAPGKGLEWVSGISGSGGYIHYADSVKGRFTISRDNSKNTLYLQMNSLRAEDTAVYYCATYSSGLHDAFDIWGQGTLVTVSS
VL: B2 VL with G52D, D54N, N55K, V92A, V100W
Regarding B3, in assay [2], the EC50 came to 0.1 nM.

B4: 5-B07 (antibody, V domains shown)
VH: EVQLLESGGGLVQPGGSLRLSCAASGFTFSSYSMNWVRQAPGKGLEWVSAISGSGGSTYYADSVKGRFTISRDNSKNTLYLQMNSLRAEDTAVYYCARDRVEMNQWLADWGQGTLVTVSS
VL: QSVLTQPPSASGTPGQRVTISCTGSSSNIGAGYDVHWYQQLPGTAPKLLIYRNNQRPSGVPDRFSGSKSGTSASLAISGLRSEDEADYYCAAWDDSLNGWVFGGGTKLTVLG
Molecule B4 returned a 50% effective concentration (EC50) in assay [2] of 0.15 nM.
